From US6057123, “Stem cell inhibiting proteins” (British Biotech Pharmaceuticals Limited, dated 2000)

B1: LD78 Val39>Ala (Mutant 91) (ligand)
chain: SLAADTPTACCFSYTSRQIPQNFIADYFETSSQCSKPGAIFLTKRSRQVCADPSEEWVQKYVSDLELSA
B2: LD78 Ile19>Ala (Mutant 80) (ligand)
chain: SLAADTPTACCFSYTSRQAPQNFIADYFETSSQCSKPGVIFLTKRSRQVCADPSEEWVQKYVSDLELSA
B3: LD78 Leu-Ser-Ala-Ser1>Pro Gly38>Ser Ser46>Gly (Mutant 35) (ligand)
chain: LSAPLAADTPTACCFSYTSRQIPQNFIADYFETSSQCSKPSVIFLTKRGRQVCADPSEEWVQKYVSDLELSA
B4: LD78 Lys44>Glu Arg45>Gln (Mutant 2) (ligand)
chain: SLAADTPTACCFSYTSRQIPQNFIADYFETSSQCSKPGVIFLTEQSRQVCADPSEEWVQKYVSDLELSA
B5: LD78 Phe28>Glu Arg47>Glu (Mutant 26) (ligand)
chain: SLAADTPTACCFSYTSRQIPQNFIADYEETSSQCSKPGVIFLTKRSEQVCADPSEEWVQKYVSDLELSA
B6: LD78 Ile24>Ala (Mutant 38) (ligand)
chain: SLAADTPTACCFSYTSRQIPQNFAADYFETSSQCSKPGVIFLTKRSRQVCADPSEEWVQKYVSDLELSA
B7: LD78 Ser13>Ala (Mutant 62) (ligand)
chain: SLAADTPTACCFAYTSRQIPQNFIADYFETSSQCSKPGVIFLTKRSRQVCADPSEEWVQKYVSDLELSA
B8: human LD78 (wild type, recombinant, expressed from a synthetic gene in yeast) (ligand)
chain: SLAADTPTACCFSYTSRQIPQNFIADYFETSSQCSKPGVIFLTKRSRQVCADPSEEWVQKYVSDLELSA
B9: LD78 Glu29>Arg (Mutant 28) (ligand)
chain: SLAADTPTACCFSYTSRQIPQNFIADYFRTSSQCSKPGVIFLTKRSRQVCADPSEEWVQKYVSDLELSA
B10: LD78 Phe12>Gln (Mutant 11) (ligand)
chain: SLAADTPTACCQSYTSRQIPQNFIADYFETSSQCSKPGVIFLTKRSRQVCADPSEEWVQKYVSDLELSA
B11: LD78 Arg17>Ser Gln18>Glu (Mutant 30) (ligand)
chain: SLAADTPTACCFSYTSSEIPQNFIADYFETSSQCSKPGVIFLTKRSRQVCADPSEEWVQKYVSDLELSA
B12: LD78 Asp5>Ser (Mutant 37) (ligand)
chain: SLAASTPTACCFSYTSRQIPQNFIADYFETSSQCSKPGVIFLTKRSRQVCADPSEEWVQKYVSDLELSA
B13: LD78 Ser1>Ala (Mutant 54) (ligand)
chain: ALAADTPTACCFSYTSRQIPQNFIADYFETSSQCSKPGVIFLTKRSRQVCADPSEEWVQKYVSDLELSA
B14: LD78 Glu66>Ser (Mutant 52) (ligand)
chain: SLAADTPTACCFSYTSRQIPQNFIADYFETSSQCSKPGVIFLTKRSRQVCADPSEEWVQKYVSDLSLSA
B15: LD78 Tyr27>Ala (Mutant 66) (ligand)
chain: SLAADTPTACCFSYTSRQIPQNFIADAFETSSQCSKPGVIFLTKRSRQVCADPSEEWVQKYVSDLELSA
B16: LD78 Lys44>Ser (Mutant 42) (ligand)
chain: SLAADTPTACCFSYTSRQIPQNFIADYFETSSQCSKPGVIFLTSRSRQVCADPSEEWVQKYVSDLELSA
B17: LD78 Ser35>Ala (Mutant 68) (ligand)
chain: SLAADTPTACCFSYTSRQIPQNFIADYFETSSQCAKPGVIFLTKRSRQVCADPSEEWVQKYVSDLELSA
B18: LD78 Asp26>Ala (Mutant 10) (ligand)
chain: SLAADTPTACCFSYTSRQIPQNFIAAYFETSSQCSKPGVIFLTKRSRQVCADPSEEWVQKYVSDLELSA
B19: LD78 Arg17>Ser (Mutant 5) (ligand)
chain: SLAADTPTACCFSYTSSQIPQNFIADYFETSSQCSKPGVIFLTKRSRQVCADPSEEWVQKYVSDLELSA

Target: the molecule itself
Experiment: self-association; sedimentation equilibrium AUC, 150 mM PBS pH7.4

B1: no binding (tested: 0.5 mg/ml).
B2: no binding (tested: 0.5 mg/ml).

target: LD78 receptor on the murine stem cell line FDCP cell mix (A4 cells) (murine); experiment: displacement of 125I-LD78 from FDCP-mix A4 cells; % of wild-type activity based on IC50

Point of comparison: B18, Receptor Binding % WT 77.4 % WT. Against it:
- B3 — lower, 3 % WT
- B4 — lower, 5 % WT
- B5 — lower, 1 % WT
- B6 — lower, 50 % WT
- B7 — lower, 66 % WT
- B8 — higher, 100 % WT
- B9 — lower, 7.7 % WT
- B10 — lower, 34 % WT
- B11 — lower, 4.2 % WT
- B12 — lower, 45 % WT
- B13 — higher, 145 % WT
- B14 — higher, 162 % WT
- B15 — lower, 47 % WT
- B16 — lower, 18 % WT
- B17 — higher, 125 % WT
- B19 — lower, 25 % WT
